Substitutions are numbered along the chain they refer to. Numbers in names are those of the source. Where “and” joins values, the source holds several entries; their conditions need not be identical. Identical values can stand only once.
Experiments:
biotinylated human TNFR2 [1] = molecular target: T1, biotinylated human TNFR2 (human, UniProt P20333 23-257, biotinylated); assay: SPR (BIAcore), apparent affinity
T1 construct: Soluble biotinylated protein captured on a streptavidin chip for SPR; also called HuTNFR2
T1 sequence: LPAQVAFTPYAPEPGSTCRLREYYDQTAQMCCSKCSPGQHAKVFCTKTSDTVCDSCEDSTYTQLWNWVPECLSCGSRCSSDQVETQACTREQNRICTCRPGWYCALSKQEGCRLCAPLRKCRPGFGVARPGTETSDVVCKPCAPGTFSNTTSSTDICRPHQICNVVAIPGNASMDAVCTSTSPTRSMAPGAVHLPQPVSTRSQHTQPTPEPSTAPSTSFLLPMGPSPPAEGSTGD
Procedure: (§1) Increased avidity was confirmed by Surface Plasmon Resonance (SPR) using a BIAcore. Briefly, biotinylated human- or cyno-TNFR2 was captured on the surface of a streptavidin chip for 60 seconds at a flow rate of […]. […] The dissociation phase was then initiated with running buffer (HBS-EP+) injected for 600 seconds at […]. Data were analyzed using the Biacore Evaluation Software.

cynomolgus monkey TNFR2 [2] = molecular target: T2, cynomolgus monkey TNFR2 (cynomolgus monkey, UniProt P20333 23-461 (human entry)); assay: cell-based or functional assay
T2 chain: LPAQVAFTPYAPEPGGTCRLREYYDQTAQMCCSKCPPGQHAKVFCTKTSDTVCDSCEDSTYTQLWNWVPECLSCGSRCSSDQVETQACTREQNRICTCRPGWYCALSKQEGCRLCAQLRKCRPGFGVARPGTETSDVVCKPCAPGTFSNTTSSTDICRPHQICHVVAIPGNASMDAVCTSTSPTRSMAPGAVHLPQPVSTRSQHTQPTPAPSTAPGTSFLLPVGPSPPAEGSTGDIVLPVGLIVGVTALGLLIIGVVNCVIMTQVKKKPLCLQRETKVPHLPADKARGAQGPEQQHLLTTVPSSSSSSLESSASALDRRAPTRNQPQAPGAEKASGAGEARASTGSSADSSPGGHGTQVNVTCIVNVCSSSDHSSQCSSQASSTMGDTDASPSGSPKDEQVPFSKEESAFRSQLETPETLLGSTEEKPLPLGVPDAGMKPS

human TNFR2 [3] = molecular target: T3, human TNFR2 (human, UniProt P20333 23-461); assay: cell-based or functional assay
T3 sequence: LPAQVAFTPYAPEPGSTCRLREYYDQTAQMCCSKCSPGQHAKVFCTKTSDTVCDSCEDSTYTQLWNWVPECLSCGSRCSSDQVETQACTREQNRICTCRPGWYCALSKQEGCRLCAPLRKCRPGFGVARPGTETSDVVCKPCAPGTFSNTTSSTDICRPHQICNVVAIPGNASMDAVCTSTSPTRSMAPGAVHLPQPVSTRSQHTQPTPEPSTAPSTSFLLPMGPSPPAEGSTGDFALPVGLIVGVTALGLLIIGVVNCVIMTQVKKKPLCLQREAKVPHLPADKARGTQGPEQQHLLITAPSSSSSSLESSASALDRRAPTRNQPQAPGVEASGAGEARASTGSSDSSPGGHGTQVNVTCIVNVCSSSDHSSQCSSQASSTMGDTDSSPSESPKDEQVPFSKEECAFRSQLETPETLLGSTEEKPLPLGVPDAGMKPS

cynomolgus monkey TNFR2 [4] = molecular target: T2, cynomolgus monkey TNFR2; assay: cell-based or functional assay
human TNFR2 [5] = molecular target: T3, human TNFR2; assay: cell-based or functional assay; remark: listed apart in the source
cynomolgus monkey TNFR2 [6] = molecular target: T2, cynomolgus monkey TNFR2; assay: cell-based or functional assay
human TNFR2 [7] = molecular target: T3, human TNFR2; assay: cell-based or functional assay; remark: listed apart in the source
biotinylated cyno TNFR2 [8] = molecular target: T4, biotinylated cyno TNFR2 (cynomolgus monkey, UniProt P20333 23-257 (human entry), limits assumed, biotinylated); assay: SPR (BIAcore), biotinylated TNFR2 captured on streptavidin chip, TetraFab as analyte (apparent affinity)
T4 construct: Soluble biotinylated protein captured on a streptavidin chip for SPR; also called CyTNFR2
T4 chain: T1 sequence with S16G, S36P, P117Q, N164H, E210A, S216G, M223V
Procedure: as §1

biotinylated human TNFR2 [9] = molecular target: T1, biotinylated human TNFR2; assay: as above
Procedure: as §1

cynomolgus monkey TNFR2 [10] = molecular target: T2, cynomolgus monkey TNFR2; assay: cell-based or functional assay
human TNFR2 [11] = molecular target: T3, human TNFR2; assay: cell-based or functional assay; remark: listed apart in the source
human TNFR2 [12] = molecular target: T3, human TNFR2; assay: cell-based or functional assay; remark: listed apart in the source
biotinylated cyno TNFR2 [13] = molecular target: T4, biotinylated cyno TNFR2; assay: SPR (BIAcore), biotinylated TNFR2 captured on streptavidin chip, antibody as analyte (apparent affinity)
Procedure: as §1

biotinylated human TNFR2 [14] = molecular target: T1, biotinylated human TNFR2; assay: as above
Procedure: as §1

human TNFR2 [15] = molecular target: T3, human TNFR2; assay: binding to human TNFR2 CHO cells
cynomolgus monkey TNFR2 [16] = molecular target: T2, cynomolgus monkey TNFR2; assay: cell-based or functional assay
human TNFR2 [17] = molecular target: T3, human TNFR2; assay: cell-based or functional assay; remark: listed apart in the source
human TNFR2 [18] = molecular target: T5, human TNFR2 (human, UniProt P20333 23-461); assay: binding to human TNFR2 CHO cells, IgG format; IgG format, light chain Q89L
T5 construct: expressed on the surface of CHO cells; also called HuTNFR2; TNFRSF1B
T5 sequence: T3 sequence

human TNFR2 [19] = molecular target: T5, human TNFR2; assay: binding to human TNFR2 CHO cells, IgG format; IgG format, light chain Q89L, Y91K
human TNFR2 [20] = molecular target: T3, human TNFR2; assay: binding to CHO cells over-expressing human TNFR2

B1: TetraFab 2053 (antibody, human IgG1, kappa)
heavy: QVQLVQSGAEVKKPGASVKVSCKVSGFSFPSSGVDWVRQAPGQGLEWLGVTWGVGSTHYNQKFQGRVTITKDTSKSTVYMELSSLRSEDTAVYYCASGEWDEGFVYWGQGTLVTVSSASTKGPSVFPLAPSSKSTSGGTAALGCLVKDYFPEPVTVSWNSGALTSGVHTFPAVLQSSGLYSLSSVVTVPSSSLGTQTYICNVNHKPSNTKVDKKVEPKSCGGGGSQVQLVQSGAEVKKPGASVKVSCKVSGFSFPSSGVDWVRQAPGQGLEWLGVTWGVGSTHYNQKFQGRVTITKDTSKSTVYMELSSLRSEDTAVYYCASGEWDEGFVYWGQGTLVTVSSASTKGPSVFPLAPSSKSTSGGTAALGCLVKDYFPEPVTVSWNSGALTSGVHTFPAVLQSSGLYSLSSVVTVPSSSLGTQTYICNVNHKPSNTKVDKKVEPKSCDKTHTCPPCPAPEAAGAPSVFLFPPKPKDTLMISRTPEVTCVVVDVSHEDPEVKFNWYVDGVEVHNAKTKPREEQYNSTYRVVSVLTVLHQDWLNGKEYKCKVSNKALPAPIEKTISKAKGQPREPQVYTLPPSREEMTKNQVSLTCLVKGFYPSDIAVEWESNGQPENNYKTTPPVLDSDGSFFLYSKLTVDKSRWQQGNVFSCSVMHEALHNHYTQKSLSLSPGK
light: DIQLTQSPSFLSASVGDRVTITCKASQNVGTAVAWYQQKPGKAPKLLIYAASTLQSGVPSRFSGSGSGTEFTLTISSLQPEDFATYYCQQYSSYPLTFGGGTKVEIKRTVAAPSVFIFPPSDEQLKSGVTASVVCLLNNFYPREAKVQWKVDNALQSGNSQESVTEQDSKDSTYSLSSTLTLSKADYEKHKVYACEVTHQGLSSPVTKSFNRGEC
notes: also called TF2053
fold improvement of KD compared to its IgG counterparts 854 or 1765 (biotinylated human TNFR2 [1]): 5 fold
Cyno EC50, OX-40 up-regulation on splenic Treg, donor 17-5215 (cynomolgus monkey TNFR2 [2]): 1.75 nM
Cyno EC50, OX-40 up-regulation on splenic Treg, donor #31 (cynomolgus monkey TNFR2 [2]): 0.799 nM
Cyno EC50, OX-40 up-regulation on splenic Treg, donor #34 (cynomolgus monkey TNFR2 [2]): 0.905 nM
Cyno EC50, OX-40 up-regulation on splenic Treg, donor TA1 (cynomolgus monkey TNFR2 [2]): 0.642 nM
Cyno EC50, OX-40 up-regulation on splenic Treg, donor TA2 (cynomolgus monkey TNFR2 [2]): 0.692 nM
Human EC50, OX-40 up-regulation on splenic Treg, donor BioIVT #BRH1515663 (human TNFR2 [3]): 0.018 nM
Human EC50, OX-40 up-regulation on splenic Treg, donor ZenBio #072518 (human TNFR2 [3]): 0.047 nM
loss of potency in cyno versus human, IKBa degradation (cynomolgus monkey TNFR2 [4]): > 5 fold
mean EC50 for IKBa in cyno expanded Tregs (cynomolgus monkey TNFR2 [4]): 0.145 nM
mean EC50 for upregulation of OX-40 in cyno splenic Treg (cynomolgus monkey TNFR2 [4]): 0.958 nM
fold improvement of EC50 for up-regulation of ICAM-1 against 854 and 1765 (human TNFR2 [5]): 10 fold
fold improvement of Jurkat EC50 compared to both 854 and 1765 (human TNFR2 [5]): > 10 fold
mean EC50 for IKBa in human expanded Tregs (human TNFR2 [5]): 0.026 nM
mean EC50 for OX-40 upregulation on human splenic Treg (human TNFR2 [5]): 0.033 nM
EC50 CyPBMC (CD25+/Ki67+ of CD4+ cells) (cynomolgus monkey TNFR2 [6]): 5.95 µg/mL
EC50 HuPBMC (ICAM-1 up-regulation) (human TNFR2 [7]): 0.116 µg/mL
Kd (biotinylated cyno TNFR2 [8]): 0.61 nM
koff (biotinylated cyno TNFR2 [8]): 0.00706 s⁻¹
kon (biotinylated cyno TNFR2 [8]): 1.15e+07 M⁻¹ s⁻¹
Kd (biotinylated human TNFR2 [9]): 0.06 nM
koff (biotinylated human TNFR2 [9]): 0.000473 s⁻¹
kon (biotinylated human TNFR2 [9]): 8.1e+06 M⁻¹ s⁻¹
Cyno EC50, IKBa degradation in expanded Tregs, donor Cyno3 (cynomolgus monkey TNFR2 [10]): 2.25 nM
Cyno EC50, IKBa degradation in expanded Tregs, donor Cyno 16-477 (cynomolgus monkey TNFR2 [10]): 0.118 nM
Cyno EC50, IKBa degradation in expanded Tregs, donor Cyno 16-873 (cynomolgus monkey TNFR2 [10]): 0.0538 nM
Cyno EC50, IKBa degradation in expanded Tregs, donor Cyno 18-7469 (cynomolgus monkey TNFR2 [10]): 0.4 nM
Cyno EC50, IKBa degradation in expanded Tregs, donor Cyno 18-7473 (cynomolgus monkey TNFR2 [10]): 0.155 nM
Human EC50, IKBa degradation in expanded Tregs, donor Human D23 (human TNFR2 [11]): 0.0478 nM
Human EC50, IKBa degradation in expanded Tregs, donor Human D24 (human TNFR2 [11]): 0.00575 nM
Human EC50, IKBa degradation in expanded Tregs, donor Human D28 (human TNFR2 [11]): 0.02 nM and 0.0179 nM
Human EC50, IKBa degradation in expanded Tregs, donor Human D32 (human TNFR2 [11]): 0.0373 nM
EC50 Jurkat (human TNFR2 [12]): 0.037 µg/mL

B2: GBT-TNFR2-1765 (antibody, human IgG2, kappa, V domains shown)
VH: QVQLVQSGAEVKKPGASVKVSCKVSGFSFPSSGVDWVRQAPGQGLEWLGVTWGVGSTHYNQKFQGRVTITKDTSKSTVYMELSSLRSEDTAVYYCASGEWDEGFVYWGQGTLVTVSS
VL: DIQLTQSPSFLSASVGDRVTITCKASQNVGTAVAWYQQKPGKAPKLLIYAASTLQSGVPSRFSGSGSGTEFTLTISSLQPEDFATYYCQQYSSYPLTFGGGTKVEIKR
Kd (biotinylated cyno TNFR2 [13]): 2.39 nM
koff (biotinylated cyno TNFR2 [13]): 0.00977 s⁻¹
kon (biotinylated cyno TNFR2 [13]): 4.09e+06 M⁻¹ s⁻¹
Kd (biotinylated human TNFR2 [14]): 0.32 nM
koff (biotinylated human TNFR2 [14]): 0.00136 s⁻¹
kon (biotinylated human TNFR2 [14]): 4.2e+06 M⁻¹ s⁻¹
EC50 CyPBMC (CD25+/Ki67+ of CD4+ cells) (cynomolgus monkey TNFR2 [6]): 13.6 µg/mL
EC50 HuPBMC (ICAM-1 up-regulation) (human TNFR2 [7]): 1.31 µg/mL
EC50 (human TNFR2 [15]): 1.21 nM
EC50 (CyPBMC) (cynomolgus monkey TNFR2 [16]): 13.6 nM
EC50 (HuPBMC) (human TNFR2 [17]): 1.31 nM
Jurkat EC50 (human TNFR2 [17]): 1.01 µg/mL
EC50 Jurkat (human TNFR2 [12]): 1.01 µg/mL

B3: IgG2205 (antibody, V domains shown)
VH: B2 VH
VL: B2 VL with Q89L
notes: IgG
EC50 (human TNFR2 [18]): 0.43 nM

B4: IgG 2204 (antibody, V domains shown)
VH: B2 VH
VL: B2 VL with Q89L, Y91K
notes: IgG
EC50 (human TNFR2 [19]): 1.63 nM

B5: clone 825 (antibody, V domains shown)
VH: QVQLKESGPGLVAPSQSLSITCTVSGFSFPSSGVDWVRQSPGKGLEWLGVTWGVGSTHYNSALKSRLSISKDNSKSQVFLKMNSLQTEDTAIYYCASGEWDEGFVYWGQGTLVTVSA
VL: DIVMTQSQKFMSTTVGDRVSITCKASQNVGTAVAWYQQKPGQSPKLLIYSASNRYTGVPDRFTGSGSGTDFTLTISNMQSEDLADYFCQQYSSYPLTFGGGTKLEIK
notes: human IgG1 (L234A, L235A, G237A, EU), kappa
EC50 (human TNFR2 [20]): 0.0698 µg/mL

Source: patent US20230406951A1 (Pfizer, published 2023)
